Experimental data: patent US20240018189A1 (PROTAGONIST THERAPEUTICS, published 2024)
Values belong to the binder of their own block, whether it stands above or below them. Starred links: 1 amine or outer side, 2 acyl side, 3 side chain; linkers in the order of their positions; H or OH if unused. Positions of bridges follow the written chain, without caps; N, C: chain ends. Non-standard residues stand in square brackets, D forms with d. Groups on a side chain read outwards from the residue. *: point of attachment. PEG12 = NCCOCCOCCOCCOCCOCCOCCOCCOCCOCCOCCOCCOCCC(=O)O; Phe(4-COOH) = N[C@@H](Cc1ccc(C(=O)O)cc1)C(=O)O; Phe(4-tBu) = CC(C)(C)c1ccc(C[C@H](N)C(=O)O)cc1; Pro(4Amino) = proline with a 4-amino group; Phe(4-CN) = N#Cc1ccc(C[C@H](N)C(=O)O)cc1; Dip = N[C@H](C(=O)O)C(c1ccccc1)c1ccccc1; γGlu = O=C(O)[C@H](CCC(=O)[*:2])N[*:1]; 2Nal = N[C@@H](Cc1ccc2ccccc2c1)C(=O)O; AEF = NCCOc1ccc(C[C@H](N)C(=O)O)cc1; Arg(Dimethyl) = dimethyl-arginine; Palmitoyl = CCCCCCCCCCCCCCCC(=O)*; αMeF = C[C@](N)(Cc1ccccc1)C(=O)O; β3hF = N[C@H](CC(=O)O)Cc1ccccc1; Cit = NC(=O)NCCC[C@H](N)C(=O)O; Spiral_Pip = not defined here; Isovaleryl = CC(C)CC(=O)*; αMeC = C[C@](N)(CS)C(=O)O; Npc = nipecotic acid; Ahx = NCCCCCC(=O)O

Biological target: T1, human ferroportin (SLC40A1) fused in frame with GFP (human) (UniProt Q9NP59)
T1 sequence (looked up): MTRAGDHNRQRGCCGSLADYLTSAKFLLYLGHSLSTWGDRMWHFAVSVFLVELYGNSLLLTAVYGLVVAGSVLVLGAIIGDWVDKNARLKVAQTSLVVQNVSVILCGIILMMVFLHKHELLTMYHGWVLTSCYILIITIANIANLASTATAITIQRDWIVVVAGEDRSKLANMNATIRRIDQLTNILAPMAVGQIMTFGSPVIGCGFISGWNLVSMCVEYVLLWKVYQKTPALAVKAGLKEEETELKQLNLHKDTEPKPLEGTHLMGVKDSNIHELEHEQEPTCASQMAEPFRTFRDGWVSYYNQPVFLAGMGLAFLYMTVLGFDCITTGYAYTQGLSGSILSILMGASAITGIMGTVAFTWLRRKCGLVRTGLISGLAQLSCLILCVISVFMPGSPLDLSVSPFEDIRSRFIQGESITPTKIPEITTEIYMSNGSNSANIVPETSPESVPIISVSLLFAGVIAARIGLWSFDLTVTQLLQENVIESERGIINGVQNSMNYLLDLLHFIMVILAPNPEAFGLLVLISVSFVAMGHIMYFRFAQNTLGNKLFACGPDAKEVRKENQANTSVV
Experiment: cell-based or functional assay

IC50: FPN internalisation: 0.8 nM
B1: Seq. No. 350 (peptide)
peptide: DTHXXCIKFKKC
modifications: N-term isovaleric acid; 4 Dpa; 5 bhPro; 8 (D)Lys; 10 Lys(PEG12_Palm); 11 (D)Lys; C-term NH2

IC50: FPN internalisation: 21.5 nM
B2: Seq. No. 353 (peptide)
peptide: Isovaleryl-DTHFP[αMeC]I[dK]FK([PEG12-Palmitoyl])KC-NH2
modifications: disulfide 6-12 (inferred)

FPN EC50: 41.6 nM
B3: Compd. ID 23 (peptide)
peptide: DTHXPCIKXKRC
modifications: N-term isovaleric acid; 4 Dpa; 8 (D)Lys; 9 bhPhe; 10 Lys(Ahx-Palm); 11 Arg(Dimethyl); C-term NH2

FPN EC50: 18.5 nM
B8: Compd. ID 40 (peptide)
peptide: DTHXPCIKXKKC
modifications: N-term isovaleric acid; 4 Dpa; 8 (D)Lys; 9 bhPhe; 10 Lys(Ahx_Ahx_Ahx_Palm); 11 (D)Lys; C-term NH2

IC50: FPN internalisation: 7.55 nM
B10: Seq. No. 355 (peptide)
peptide: Isovaleryl-DTHFPCI[dK]FK([PEG12-Palmitoyl])K[αMeC]-NH2
modifications: disulfide 6-12 (inferred)

FPN EC50: 26.6 nM
B12: Compd. ID 30 (peptide)
peptide: Isovaleryl-DTH[Dip]PCI[Cit][β3hF]K([Ahx-Palmitoyl])[dK]C-NH2
modifications: disulfide 6-12 (inferred)

FPN EC50: 25.4 nM
B13: Compd. ID 33 (peptide)
peptide: DTHXPCIKXKPRSKC
modifications: N-term isovaleric acid; 4 Dpa; 8 (D)Lys; 9 bhPhe; 10 Lys(2Peg11′_Palm); C-term NH2

IC50: FPN internalisation: 6.48 nM
B17: Seq. No. 352 (peptide)
peptide: Isovaleryl-DTH[Dip][Npc]CI[dK]FK([PEG12-Palmitoyl])[dK]C-NH2
modifications: disulfide 6-12 (inferred)

FPN EC50: 25.7 nM
B19: Compd. ID 25 (peptide)
peptide: DTHXPCIKXKPC
modifications: N-term isovaleric acid; 4 Dpa; 8 (D)Lys; 9 bhPhe; 10 Lys(Ahx-Palm); 11 Pro(4-Amino); C-term NH2

FPN EC50: 11.5 nM
B20: Compd. ID 12 (peptide)
peptide: Isovaleryl-DTH[Dip][Npc]CI[dK][β3hF]K([Ahx-Palmitoyl])C[dK]-NH2
modifications: disulfide 6-11 (inferred)

FPN EC50: 3.05 nM
B21: Compd. ID 10 (peptide)
peptide: DTHXPCIKXKKC
modifications: not fully specified; N-term isovaleric acid; 4 Dpa; 8 Lys[1Peg2-1Peg2-Ahx-C18_Diacid]; 9 bhPhe; 11 (D)Lys; C-term NH2

IC50: FPN internalisation: 9.64 nM
B22: Seq. No. 360 (peptide)
peptide: Isovaleryl-DTH[Dip][Npc]CI[dK]FK([PEG12-Palmitoyl])KC-NH2
modifications: disulfide 6-12 (inferred)

IC50: FPN internalisation: 11.2 nM
B23: Seq. No. 349 (peptide)
peptide: DTHXPCIKXKKC
modifications: N-term isovaleric acid; 4 Dpa; 8 (D)Lys; 9 bhPhe; 10 Lys(PEG12_Palm); 11 (D)Lys; C-term NH2

FPN EC50: 8.29 nM
B25: Compd. ID 17 (peptide)
peptide: DTHXPCIKXKKC
modifications: N-term isovaleric acid; 4 Dpa; 8 (D)Lys; 9 bhPhe; 10 Lys(Ahx-Palm); C-term NH2

FPN EC50: 30.1 nM
B26: Compd. ID 22 (peptide)
peptide: DTHXPCIKXKRC
modifications: N-term isovaleric acid; 4 Dpa; 8 (D)Lys; 9 bhPhe; 10 Lys(Ahx-Palm); 11 Arg(Nitro); C-term NH2

IC50: FPN internalisation: 8.57 nM
B27: Seq. No. 359 (peptide)
peptide: Isovaleryl-DTH[Dip][Npc]CI[dK][Phe(4-tBu)]K([PEG12-Palmitoyl])KC-NH2
modifications: disulfide 6-12 (inferred)

FPN EC50: 19.6 nM
B28: Compd. ID 37 (peptide)
peptide: DTHXPCIKXKKC
modifications: N-term isovaleric acid; 4 Dpa; 8 (D)Lys; 9 bhPhe; 10 Lys(2Peg11′_Ahx_Palm); 11 (D)Lys; C-term NH2

FPN EC50: 18.5 nM
B33: Compd. ID 41 (peptide)
peptide: DTHXPCIKXKKC
modifications: N-term isovaleric acid; 4 Dpa; 8 (D)Lys; 9 bhPhe; 10 Lys(2Peg11′_Peg11_Palm); 11 (D)Lys; C-term NH2

FPN EC50: 30 nM
Potency EC50: 30 nM
B35: Ref. Cmpd. 1 (peptide)
peptide: Isovaleryl-DTHFPCIKFKPRSKGCK-NH2
modifications: disulfide 6-16 (inferred); not fully specified (residue 10); also: K10: Lys[PEG11-Palm] (Lys[2PEG11-Palm]

Potency EC50 (nM): > 10000 nM
B37: RI-Mini Hepcidin (peptide)
peptide: FICIPFHTD
modifications: all residues D-amino acids (DPhe-DIle-DCys-DIle-DPro-DPhe-DHis-DThr-DAsp); Hy- at the N-terminus; C-term NH2

FPN EC50: 27.1 nM
B38: Compd. ID 28 (peptide)
peptide: Isovaleryl-DTH[Dip]PCI[Arg(Nitro)][β3hF]K([Ahx-Palmitoyl])[dK]C-NH2
modifications: disulfide 6-12 (inferred)

FPN EC50: 10.9 nM
B40: Compd. ID 36 (peptide)
peptide: DTHXPCIKXKKC
modifications: N-term isovaleric acid; 4 Dpa; 8 (D)Lys; 9 bhPhe; 10 Lys(2Peg11′_Sarc_Palm); 11 (D)Lys; C-term NH2

FPN EC50: 45.8 nM
B41: Compd. ID 24 (peptide)
peptide: DTHXPCIKXKXC
modifications: N-term isovaleric acid; 4 Dpa; 8 (D)Lys; 9 bhPhe; 10 Lys(Ahx-Palm); 11 Cit; C-term NH2

FPN EC50: 18 nM
B42: Compd. ID 31 (peptide)
peptide: Isovaleryl-DTH[Dip]PCI[Pro(4Amino)][β3hF]K([Ahx-Palmitoyl])[dK]C-NH2
modifications: disulfide 6-12 (inferred)

IC50: FPN internalisation: 10 nM
B43: Seq. No. 354 (peptide)
peptide: Isovaleryl-DTHFP[αMeC]I[dK]FK([PEG12-Palmitoyl])K[αMeC]-NH2
modifications: disulfide 6-12 (inferred)

FPN EC50: 16.1 nM
B44: Compd. ID 13 (peptide)
peptide: Isovaleryl-DTH[Dip][Npc]CI[dK][β3hF]K([γGlu-Palmitoyl])C[dK]-NH2
modifications: disulfide 6-11 (inferred)

FPN EC50: 6.66 nM
B46: Compd. ID 20 (peptide)
peptide: DTHXPCIKXKKC
modifications: N-term isovaleric acid; 4 Dpa; 8 (D)Lys; 9 bhPhe; 10 Lys(Ahx-Palm); 11 (D)Lys; C-term NH2

More lines, now with the values behind:

B4: Compd. ID 21 (peptide)
peptide: DTHXPCIKXKXC
modifications: not fully specified; N-term isovaleric acid; 4 Dpa; 8 (D)Lys; 9 bhPhe; 10 Lys(Ahx-Palm); 11 Spiral_Pip; C-term NH2
FPN EC50: 37.5 nM

B5: Compd. ID 26 (peptide)
peptide: DTHXPCIKXKXC
modifications: N-term isovaleric acid; 4 Dpa; 8 (D)Lys; 9 bhPhe; 10 Lys(Ahx-Palm); 11 Cav; C-term NH2
FPN EC50: 32.2 nM

B6: Compd. ID 35 (peptide)
peptide: Isovaleryl-DTH[Dip]PCI[dK][β3hF]K([PEG12-Palmitoyl])P[dK]S[dK][Sarc]C[dK]-NH2
modifications: disulfide 6-16 (inferred)
FPN EC50: 23.1 nM

B7: Compd. ID 27 (peptide)
peptide: Isovaleryl-DTH[Dip]PCI[Spiral_Pip][β3hF]K([Ahx-Palmitoyl])[dK]C-NH2
modifications: disulfide 6-12 (inferred); reading uncertain
FPN EC50: 26.3 nM

B9: Compd. ID 2 (peptide)
peptide: DTHXPCIKXKRC
modifications: N-term isovaleric acid; 4 Dpa; 8 (D)Lys; 9 bhPhe; 10 Lys(Ahx-Palm); C-term NH2
FPN EC50: 11.8 nM

B11: Compd. ID 39 (peptide)
peptide: DTHXPCIKXKKC
modifications: N-term isovaleric acid; 4 Dpa; 8 (D)Lys; 9 bhPhe; 10 Lys(Ahx_Ahx_Palm); 11 (D)Lys; C-term NH2
FPN EC50: 19.3 nM

B14: Compd. ID 16 (peptide)
peptide: DTHXPCIKXKKC
modifications: N-term isovaleric acid; 4 Dpa; 8 (D)Lys; 9 bhPhe; 10 Lys[Palm]; C-term NH2
FPN EC50: 5.85 nM

B15: Seq. No. 347 (peptide)
peptide: Isovaleryl-DTH[Dip][Npc]CI[dK][Phe(4-CN)]K([PEG12-Palmitoyl])KC-NH2
modifications: disulfide 6-12 (inferred)
IC50: FPN internalisation: 23 nM

B16: Seq. No. 357 (peptide)
peptide: Isovaleryl-DTH[Dip][Npc]CI[dK][2Nal]K([PEG12-Palmitoyl])KC-NH2
modifications: disulfide 6-12 (inferred)
IC50: FPN internalisation: 10.2 nM

B18: Seq. No. 348 (peptide)
peptide: Isovaleryl-DTH[Dip][Npc]CI[dK][αMeF]K([PEG12-Palmitoyl])KC-NH2
modifications: disulfide 6-12 (inferred)
IC50: FPN internalisation: 2.1 nM

B24: Compd. ID 34 (peptide)
peptide: Isovaleryl-DTH[Dip]PCI[dK][β3hF]K([PEG12-Palmitoyl])PRSK[Sarc]C-NH2
modifications: disulfide 6-16 (inferred)
FPN EC50: 23.6 nM

B29: Seq. No. 356 (peptide)
peptide: Isovaleryl-DTH[Dip][Npc]CI[dK][Phe(4-COOH)]K([PEG12-Palmitoyl])KC-NH2
modifications: disulfide 6-12 (inferred)
IC50: FPN internalisation: 0.1 nM

B30: Compd. ID 29 (peptide)
peptide: Isovaleryl-DTH[Dip]PCI[Arg(Dimethyl)][β3hF]K([Ahx-Palmitoyl])[dK]C-NH2
modifications: disulfide 6-12 (inferred)
FPN EC50: 10.6 nM

B31: Compd. ID 15 (peptide)
peptide: Isovaleryl-DTH[Dip][Npc]CI[dK][β3hF]KC[dK]-NH2
modifications: disulfide 6-11 (inferred); not fully specified (residue 10)
FPN EC50: > 3000 nM

B32: Compd. ID 38 (peptide)
peptide: DTHXPCIKXKKC
modifications: N-term isovaleric acid; 4 Dpa; 8 (D)Lys; 9 bhPhe; 10 Lys(Lys[Peg11_Palm]2); 11 (D)Lys; C-term NH2
FPN EC50: 33 nM

B34: Compd. ID 19 (peptide)
peptide: Isovaleryl-DTH[Dip][Npc]CIK([γGlu-Palmitoyl])[β3hF]C[dK]-NH2
modifications: disulfide 6-10 (inferred)
FPN EC50: 4.56 nM

B36: Seq. No. 358 (peptide)
peptide: Isovaleryl-DTH[Dip][Npc]CI[dK][AEF]K([PEG12-Palmitoyl])KC-NH2
modifications: disulfide 6-12 (inferred)
IC50: FPN internalisation: > 3000 nM

B39: Compd. ID 11 (peptide)
peptide: DTHXPCIKXKC
modifications: not fully specified; N-term isovaleric acid; 4 Dpa; 8 Lys[1Peg2-1Peg2-Ahx-C18_Diacid]; 9 bhPhe; 10 (D)Lys; C-term NH2
FPN EC50: 12.7 nM

B45: Seq. No. 351 (peptide)
peptide: Isovaleryl-DTHF[Npc]CI[dK]FK([PEG12-Palmitoyl])[dK]C-NH2
modifications: disulfide 6-12 (inferred)
IC50: FPN internalisation: 13.2 nM

B47: Compd. ID 18 (peptide)
peptide: Isovaleryl-DTH[Dip]PCI[β3hF]K([Ahx-Palmitoyl])[dK]C-NH2
modifications: disulfide 6-11 (inferred)
FPN EC50: 10.8 nM
